B1: Auxin-responsive protein IAA12 (Arabidopsis thaliana (Mouse-ear cress)), Q38830 (parent)
chain: MRGVSELEVGKSNLPAESELELGLGLSLGGGAWKERGRILTAKDFPSVGSKRSAESSSHQGASPPRSSQVVGWPPIGLHRMNSLVNNQAMKAARAEEGDGEKKVVKNDELKDVSMKVNPKVQGLGFVKVNMDGVGIGRKVDMRAHSSYENLAQTLEEMFFGMTGTTCREKVKPLRLLDGSSDFVLTYEDKEGDWMLVGDVPWRMFINSVKRLRIMGTSEASGLAPRRQEQKDRQRNNPV
partner: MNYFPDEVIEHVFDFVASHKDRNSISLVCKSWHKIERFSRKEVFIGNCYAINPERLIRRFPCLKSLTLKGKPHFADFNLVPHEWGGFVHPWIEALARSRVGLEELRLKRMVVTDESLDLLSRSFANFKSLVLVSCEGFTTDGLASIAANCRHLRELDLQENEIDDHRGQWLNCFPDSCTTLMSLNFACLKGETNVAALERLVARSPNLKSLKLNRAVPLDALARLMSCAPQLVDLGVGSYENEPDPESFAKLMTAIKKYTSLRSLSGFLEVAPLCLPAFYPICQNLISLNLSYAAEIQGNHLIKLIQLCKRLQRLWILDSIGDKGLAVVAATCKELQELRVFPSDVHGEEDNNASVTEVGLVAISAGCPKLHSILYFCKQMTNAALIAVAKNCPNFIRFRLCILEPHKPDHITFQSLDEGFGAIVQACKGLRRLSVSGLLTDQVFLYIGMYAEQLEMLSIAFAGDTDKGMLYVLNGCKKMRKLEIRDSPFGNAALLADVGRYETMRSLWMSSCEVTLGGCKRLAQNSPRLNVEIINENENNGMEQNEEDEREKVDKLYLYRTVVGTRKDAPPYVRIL
B2: Auxin-responsive protein IAA12 (Arabidopsis thaliana (Mouse-ear cress)), Q38830 (parent)
chain: B1 chain
partner: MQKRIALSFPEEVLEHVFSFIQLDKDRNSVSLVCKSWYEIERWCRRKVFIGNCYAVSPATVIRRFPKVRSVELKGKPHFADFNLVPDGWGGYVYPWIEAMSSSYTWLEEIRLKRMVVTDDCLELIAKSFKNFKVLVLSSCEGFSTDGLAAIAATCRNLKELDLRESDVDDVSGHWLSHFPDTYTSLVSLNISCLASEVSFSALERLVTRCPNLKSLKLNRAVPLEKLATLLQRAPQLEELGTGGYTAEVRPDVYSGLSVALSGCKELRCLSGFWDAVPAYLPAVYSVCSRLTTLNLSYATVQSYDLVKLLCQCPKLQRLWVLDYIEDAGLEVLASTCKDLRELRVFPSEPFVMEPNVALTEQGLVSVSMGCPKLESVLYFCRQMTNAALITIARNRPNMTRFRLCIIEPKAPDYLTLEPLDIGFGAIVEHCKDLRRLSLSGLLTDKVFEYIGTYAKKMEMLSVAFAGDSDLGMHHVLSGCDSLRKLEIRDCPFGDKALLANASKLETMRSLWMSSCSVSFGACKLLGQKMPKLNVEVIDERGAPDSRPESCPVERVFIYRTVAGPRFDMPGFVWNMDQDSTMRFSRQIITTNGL
B3: Auxin-responsive protein IAA12 (Arabidopsis thaliana (Mouse-ear cress)), Q38830 (parent)
chain: B1 chain
partner: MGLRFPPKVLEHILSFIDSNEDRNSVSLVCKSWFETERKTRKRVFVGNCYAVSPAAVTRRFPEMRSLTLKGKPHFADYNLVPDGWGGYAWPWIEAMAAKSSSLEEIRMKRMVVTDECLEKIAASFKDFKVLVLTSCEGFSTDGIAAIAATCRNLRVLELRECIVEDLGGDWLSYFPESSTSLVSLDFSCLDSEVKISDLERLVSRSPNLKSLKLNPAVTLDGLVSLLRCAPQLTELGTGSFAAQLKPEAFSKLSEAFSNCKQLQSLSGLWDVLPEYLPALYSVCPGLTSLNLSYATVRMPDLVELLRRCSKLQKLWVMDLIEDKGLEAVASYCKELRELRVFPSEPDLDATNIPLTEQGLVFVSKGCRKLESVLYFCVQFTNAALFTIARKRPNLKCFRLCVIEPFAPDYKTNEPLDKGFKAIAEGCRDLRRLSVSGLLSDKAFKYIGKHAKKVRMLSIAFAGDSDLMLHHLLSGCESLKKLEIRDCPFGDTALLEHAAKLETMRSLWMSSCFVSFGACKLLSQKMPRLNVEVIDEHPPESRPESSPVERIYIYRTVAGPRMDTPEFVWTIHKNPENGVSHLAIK

Variants of: B1
Conditions: with afb3_arath AFB3, Q9LPW7

Row | Variant | effect of a mutation on the interaction
1 | MRGVSELEVGKSNLPAESELELGLGLSLGGGAWKERGRILTAKDFPSVGSKRSAESSSHQGASPPRSSQVVGWSPIGLHRMNSLVNNQAMKAARAEEGDGEKKVVKNDELKDVSMKVNPKVQGLGFVKVNMDGVGIGRKVDMRAHSSYENLAQTLEEMFFGMTGTTCREKVKPLRLLDGSSDFVLTYEDKEGDWMLVGDVPWRMFINSVKRLRIMGTSEASGLAPRRQEQKDRQRNNPV [P74S] | decreasing interaction

Variants of: B2
Conditions: with tir1_arath TIR1, Q570C0

Row | Variant | effect of a mutation on the interaction
2 | MRGVSELEVGKSNLPAESELELGLGLSLGGGAWKERGRILTAKDFPSVGSKRSAESSSHQGASPPRSSQVVGWSPIGLHRMNSLVNNQAMKAARAEEGDGEKKVVKNDELKDVSMKVNPKVQGLGFVKVNMDGVGIGRKVDMRAHSSYENLAQTLEEMFFGMTGTTCREKVKPLRLLDGSSDFVLTYEDKEGDWMLVGDVPWRMFINSVKRLRIMGTSEASGLAPRRQEQKDRQRNNPV [P74S] | decreasing interaction

Variants of: B3
Conditions: with grh1_arath GRH1, Q9ZR12

Row | Variant | effect of a mutation on the interaction
3 | MRGVSELEVGKSNLPAESELELGLGLSLGGGAWKERGRILTAKDFPSVGSKRSAESSSHQGASPPRSSQVVGWSPIGLHRMNSLVNNQAMKAARAEEGDGEKKVVKNDELKDVSMKVNPKVQGLGFVKVNMDGVGIGRKVDMRAHSSYENLAQTLEEMFFGMTGTTCREKVKPLRLLDGSSDFVLTYEDKEGDWMLVGDVPWRMFINSVKRLRIMGTSEASGLAPRRQEQKDRQRNNPV [P74S] | decreasing interaction

Reference: IntAct's records for PubMed 15992545
